From patent US20240368283A1

Legend:
[1] = biological target: huPD1 (human) (UniProt Q15116); assay: biosensor kinetics (BLI type); antibody captured on anti-human Fc biosensor, PD-1 in solution
[2] = biological target: cyPD1 (cynomolgus monkey); assay: as above

Chain of huPD1 (human) (Q15116 25-170 limits assumed): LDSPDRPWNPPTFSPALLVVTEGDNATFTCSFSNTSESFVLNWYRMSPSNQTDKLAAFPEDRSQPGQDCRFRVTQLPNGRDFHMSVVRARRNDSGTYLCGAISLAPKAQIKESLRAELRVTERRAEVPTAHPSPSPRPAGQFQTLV

| Binder | Kd [1] | koff [1] | kon [1] | Kd [2] | koff [2] | kon [2] |
| --- | --- | --- | --- | --- | --- | --- |
| TA132 (antibody, V domains shown, Fc SEQ 587, CL SEQ 416) VH: EVQLLESGGAFVQPGGSLRLSCAASGFTFSDYYMSWVRQAPGKGLEWVSVISNSGGSTYYTDSVKGRFTISRDNSKNTLYLQINSLRAEDTAVYYCTKDIGMTYFDYWGQGTLVTVSS VL: QSVLTQPPSASGAPGQRVTISCSGSYSNIGNSYVSWYQQLPGTAPKLLIYLNSQRPSGVPDRFSGSKSGTSASLAISGLQSEDEADYYCAAWDDLNVWVFGGGTKLTVL | 5.72 nM | 0.000647 s⁻¹ | 113000 M⁻¹ s⁻¹ | 92 nM | 0.0137 s⁻¹ | 149000 M⁻¹ s⁻¹ |
| TA101 (antibody, V domains shown, Fc SEQ 587, CL SEQ 416) VH: DVQLVESGGGVARPGEFLRLSCAASGFTFRDYDMGWVRQAPGEGLEWVSSISVSGTTYYADSVKGRFTISRDNSENTLYLQMNSLTAEDTAVYYCGREDTLFHYWGLGTLVTVSS VL: QSVLTQPPSASGTPGQRVTISCSGSTSNIGTRYVYWYQQLPGTAPKLLIYKNLQRPSGVPDRFSGSKSGTSASLAISGLQSEDEADYYCAAWDERLNGWVFGGGTKLTVL | 32.9 nM | 0.022 s⁻¹ | 680000 M⁻¹ s⁻¹ | 62.2 nM | 0.0076 s⁻¹ | 120000 M⁻¹ s⁻¹ |
| TA102 (antibody, V domains shown, Fc SEQ 587, CL SEQ 416) VH: DVQLVESGGGVVRPGESLRLSCAASGFTFRNYDMTWVRQAPGEGLEWVATISGTDDTTYYADSVKGRATISRDNSNNTLYLRLFSLRAEDTAIYYCAREASNSFIDYWGLGTLVTVSS VL: QSVLTQPPSASGTPGQRVTISCSGSSSNIGRRYVYWYQQLPGTAPKLLIYRNFERPSGVPDRFSGSKSGTSASLAISGLQSEDEADYYCASWDESLNGWVFGGGTKLTVL | 24.8 nM | 0.014 s⁻¹ | 540000 M⁻¹ s⁻¹ | 7.2 nM | 0.01 s⁻¹ | 1.4e+06 M⁻¹ s⁻¹ |
| TA104 (antibody, V domains shown, Fc SEQ 587, CL SEQ 416) VH: DVQLVESGGGVARPGESLRLSCAASGFTFRDYDMGWVRQAPGEGLEWVSSISVSGTTYYADSVKGRFTISRDNSENTLYLQMNSLTAEDTAVYYCGREDTLFHYWGLGTLVTVSS VL: QSVLTQPPSASGTPGQRVTISCSGSTSNIGTRYVYWYQQLPGTAPKLLIYKNLQRPSGVPDRFSGSKSGTSASLAISGLQSEDEADYYCAAWDERLNGWVFGGGTKLTVL | 33.1 nM | 0.024 s⁻¹ |  | 56.8 nM | 0.009 s⁻¹ | 160000 M⁻¹ s⁻¹ |

The remaining lines, values ahead:

| Kd [1] | koff [1] | kon [1] | Kd [2] | koff [2] | kon [2] | Binder |
| --- | --- | --- | --- | --- | --- | --- |
| 600 nM | 0.2 s⁻¹ | 330000 M⁻¹ s⁻¹ | 987 nM | 0.2 s⁻¹ | 200000 M⁻¹ s⁻¹ | TA275 (antibody, V domains shown, Fc SEQ 587, CL SEQ 416) VH: QVTLKESGPGILQPSQTLSLTCSFSGFSLSTFGMGVGWIRQPSGKGLEWLAHIWWDDDKYYNPALKSRLTISKDTSKNQVFLKIANVDTADTATYYCARIPTRYWYFDVWGTGTTVTVSS VL: QAVVTQESALTTSPGETVTLTCRSSTGAVTTSNYANWVQEKPDHLFTGLIGGTNNRAPGVPARFSGSLIGDKAALTITGAQTEDEAIYFCALWYSTHYVFGGGTKVTVL |
| 484 nM | 1.6 s⁻¹ | 3.4e+06 M⁻¹ s⁻¹ | 1390 nM | 2.1 s⁻¹ | 1.6e+06 M⁻¹ s⁻¹ | TA289 (antibody, V domains shown, Fc SEQ 587, CL SEQ 416) VH: QVTLKESGPGILQPSQTLSLTCSFSGFSLSTFGMGVGWIRQPSGKGLEWLAHIWWDDDKYYNPALKSRLTISKDTSKNQVFLKIANVDTADTATYYCARIRGTWWYFDVWGTGTTVTVSS VL: QAVVTQESALTTSPGETVTLTCRSSTGAVTTSNYANWVQEKPDHLFTGLIGGTNNRAPGVPARFSGSLIGDKAALTITGAQTEDEAIYFCALWYSNQFIFGSGTKVTVL |
